# From PMC2174006 (The Journal of Cell Biology, 2002)
# No end group written: not given here.
# Molecular target: recombinant murine [32P]RIIα (murine, UniProt P12367 1-401, 32P-labelled)
# Assay: peptide or protein array
# Sequence of recombinant murine [32P]RIIα (P12367 whole entry): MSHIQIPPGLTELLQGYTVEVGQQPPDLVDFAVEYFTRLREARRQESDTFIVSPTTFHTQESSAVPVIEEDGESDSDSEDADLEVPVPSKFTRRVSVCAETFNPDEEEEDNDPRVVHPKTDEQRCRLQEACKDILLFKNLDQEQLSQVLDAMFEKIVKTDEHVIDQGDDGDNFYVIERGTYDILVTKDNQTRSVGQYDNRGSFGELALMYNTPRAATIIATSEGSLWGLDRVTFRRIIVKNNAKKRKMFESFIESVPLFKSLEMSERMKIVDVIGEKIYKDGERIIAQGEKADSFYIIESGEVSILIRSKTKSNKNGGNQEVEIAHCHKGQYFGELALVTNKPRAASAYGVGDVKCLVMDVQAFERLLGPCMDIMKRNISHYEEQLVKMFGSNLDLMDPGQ
binder,measurement,value
Ac-NINIEEAARFLVEKILVNHQ [Rab32 peptide 178–197],binding result,binds
